The text below walks through data of US20070020327A1.

Read-outs that look alike come from different tables or passages of the source.

Experiment [1] has as its target HLA-A*1101 (human). Description: competition with 125I-labelled standard peptide for purified HLA-A*1101, gel filtration. A general note: Size exclusion chromatography separates by hydrodynamic size, large species first.
For experiment [2], the target named is HLA-A*0301 (human). As to the kind of experiment: competition with 125I-labelled standard peptide for purified HLA-A*0301, gel filtration; ratio to the A*0301 standard peptide 941.12 [..] (11 nM).
Experiment [3] concerns the target HLA-A*0201 (human). Description: inhibition of 125I-labelled probe peptide binding to purified HLA; gel filtration. The note with it: remark: other sources report otherwise.
Experiment [4] concerns the target HLA-A*0203 (human). The description is as above. The following applies: remark: other sources report otherwise.
Experiment [5] concerns the target HLA-A*0101 (human). Description: competition with 125I-labelled standard peptide for purified HLA-A*0101, gel filtration.
Experiment [6] has as its target HLA-A*1101 (human). As to the kind of experiment: competition with a 125I-labelled standard peptide for purified HLA-A*1101, gel filtration. The following applies: scale: ratio.
Experiment [7] has as its target HLA-A*0301 (human). As to the kind of experiment: competition with 125I-labelled standard peptide on purified HLA-A*0301, gel filtration.
In experiment [8] the target is HLA-A*0101 (human). Description: competition with 125I-labeled standard peptide for purified HLA-A*0101, gel filtration.
Experiment [9] concerns the target HLA-A*0201 (human). As to the kind of experiment: inhibition of 125I-labelled standard peptide binding to purified HLA-A*0201, gel filtration.
Experiment [10] has as its target HLA-A*0206 (human). As to the kind of experiment: inhibition of 125I-labelled standard peptide binding to purified HLA-A*0206, gel filtration.
For experiment [11], the target named is HLA-A*6802 (human). Description: inhibition of 125I-labelled standard peptide binding to purified HLA-A*6802, gel filtration.
Experiment [12] concerns the target HLA-A*0202 (human). Description: inhibition of 125I-labelled probe peptide binding to purified HLA; gel filtration. The following applies: remark: other sources report otherwise.
Experiment [13] has as its target HLA-A*0202 (human). Description: inhibition of 125I-labelled standard peptide binding to purified HLA-A*0202, gel filtration.
Experiment [14] deals with HLA-A*0203 (human). Description: inhibition of 125I-labelled standard peptide binding to purified HLA-A*0203, gel filtration.
For experiment [15], the target named is HLA-A*0201 (human). As to the kind of experiment: inhibition of 125I-labelled probe peptide binding to purified HLA, gel filtration. The note with it: remark: other sources report otherwise.
Experiment [16] has as its target HLA-A*0202 (human). The description is as above. The following applies: remark: other sources report otherwise.
For experiment [17], the target named is HLA-A*0203 (human). The experiment is described as above. The note with it: remark: other sources report otherwise.
The target of experiment [18] is HLA-A*6802 (human). The description is as above. The following applies: remark: other sources report otherwise.
The target of experiment [19] is HLA-A*0206 (human). The description is as above. The following applies: remark: other sources report otherwise.
In experiment [20] the target is HLA-A*0201 (human). As to the kind of experiment: inhibition of 125I-standard peptide binding to purified HLA, gel filtration. The following applies: remark: other sources report otherwise.
Experiment [21] has as its target HLA-A*0202 (human). The experiment is described as above. The note with it: remark: other sources report otherwise.
In experiment [22] the target is HLA-A*0203 (human). The description is as above. The following applies: remark: other sources report otherwise.
The target in experiment [23] is HLA-A*0206 (human). The description is as above. The following applies: remark: other sources report otherwise.
Setting [24] is: remark: other sources report otherwise.

As to TLVFRHGDR (modifications not checked) [PAP 39 …], the binding affinity ratio (IC50 of standard peptide / IC50 of test peptide) with HLA-A*1101 (human) [1] was 0.0002. In the case of CSPSCPLER (modifications not checked) [PAP 347 peptide …], the binding affinity ratio (IC50 of standard peptide / IC50 of test peptide) with HLA-A*0301 (human) [2] amounted to 0.004. For orientation: IC50 means the point on the concentration scale where inhibition reaches its midpoint. For ALDVYNGLL (modifications not checked) [peptide 1177.02 (PAP.299)], the IC50 with HLA-A*0201 (human) [3] was determined as 73 nM; with HLA-A*0203 (human) [4], 256 nM. Regarding WGEVKRQIY (modifications not checked) [… (PSM, position 725)], the binding affinity ratio (IC50 of standard peptide / IC50 of test peptide) with HLA-A*0101 (human) [5] was 0.001. As for TYELVEKFY (modifications not checked) [… (PSM, position 558)], in the experiment with HLA-A*0101 (human) [5], the binding affinity ratio (IC50 of standard peptide / IC50 of test peptide) was 0.001. In the case of DMSLLKNR (modifications not checked) [PSA 98 peptide DMSLLKNR], in the experiment with HLA-A*1101 (human) [6], the binding affinity ratio turned out to be 0.0001. The binding affinity ratio (IC50 of standard peptide / IC50 of test peptide) in the experiment with HLA-A*0301 (human) [2] was found to be 0.0003. For DIESKVDPSK (modifications not checked) [PSM 714 peptide …], in the experiment with HLA-A*1101 (human) [6], the binding affinity ratio was 0.0002. Also, in the experiment with HLA-A*0301 (human) [2], the binding affinity ratio (IC50 of standard peptide / IC50 of test peptide) was found to be 0.0003. For the molecule LLSYPNKTH (modifications not checked) [… (PSM, position 116)], in the experiment with HLA-A*0301 (human) [7], the binding affinity ratio (IC50 of standard peptide / IC50 of test peptide) was 0.0006. Consider AGESFPGIY (modifications not checked) [… (PSM, position 701)], for which the binding affinity ratio (IC50 of standard peptide / IC50 of test peptide) in the experiment with HLA-A*0101 (human) [8] was determined as 0.004. Take CLKKNSQVWL (modifications not checked) [… (Kallikrein, position 66)]: the binding affinity ratio (IC50 of standard peptide / IC50 of test peptide) was 0.0001 with HLA-A*0201 (human) [9] (setting [24]), 0.0002 in the experiment with HLA-A*0206 (human) [10] (setting [24]) and -0.0001 in the experiment with HLA-A*6802 (human) [11] (setting [24]). For the molecule LPERPSLY (modifications not checked) [LPERPSLY (PSA, position 232)], the binding affinity ratio (IC50 of standard peptide / IC50 of test peptide) in the experiment with HLA-A*0101 (human) [8] turned out to be 0.0002.

In the case of LTQLGMEQHY (modifications not checked) [… (PAP, position 70)], in the experiment with HLA-A*0101 (human) [5] (setting [24]), the binding affinity ratio (IC50 of standard peptide / IC50 of test peptide) worked out at 0.62. On to LLHETDSAVA (modifications not checked) [… (PSM, position 4)], for which the binding affinity ratio (IC50 of standard peptide / IC50 of test peptide) with HLA-A*0301 (human) [7] was 0.0005.

As for GVSIWNPIV (modifications not checked) [peptide 60.0207 (PAP.128.V9)], the IC50 in the experiment with HLA-A*0201 (human) [3] was 455 nM; in the experiment with HLA-A*0202 (human) [12], 269 nM; with HLA-A*0203 (human) [4], 909 nM. RGAVEPDRY (modifications not checked) [… (PSM, position 363)]: the binding affinity ratio (IC50 of standard peptide / IC50 of test peptide) in the experiment with HLA-A*0101 (human) [5] was determined as 0.0001. As to GMPEGDLVY (modifications not checked) [PSM 168 peptide …], the binding affinity ratio (IC50 of the standard peptide / IC50 of the test peptide) with HLA-A*1101 (human) [1] was found to be 0.0002.

In the case of EPALGTTCY (modifications not checked) [… (Kallikrein, position 145; PSA, position 141)], the binding affinity ratio (IC50 of standard peptide / IC50 of test peptide) in the experiment with HLA-A*0101 (human) [8] worked out at 0.0011. For CLKKNSQV (modifications not checked) [CLKKNSQV (Kallikrein, position 66)], the binding affinity ratio (IC50 of standard peptide / IC50 of test peptide) was 0.0001 with HLA-A*0201 (human) [9]; 0.0006 with HLA-A*0202 (human) [13]; 0.0006 in the experiment with HLA-A*0203 (human) [14]; -0.0001 in the experiment with HLA-A*0206 (human) [10]; -0.0001 with HLA-A*6802 (human) [11]. For the molecule EIASKFSER (modifications not checked) [PSM 641 peptide …], in the experiment with HLA-A*1101 (human) [6], the binding affinity ratio was determined as 0.0002. As for DTFPTDPIK (modifications not checked) [PAP 51 peptide …], in the experiment with HLA-A*1101 (human) [6], the binding affinity ratio is 0.0001. In the case of LLEKMGGSA (modifications not checked) [… (PSM, position 305)], the binding affinity ratio (IC50 of standard peptide / IC50 of test peptide) with HLA-A*0301 (human) [7] stood at 0.0006. For KAENIKKFLY (modifications not checked) [… (PSM, position 66)], in the experiment with HLA-A*0101 (human) [8], the binding affinity ratio (IC50 of standard peptide / IC50 of test peptide) amounted to 0.0001. On to SLQCVSLHL (modifications not checked) [Peptide 60.0191 (HuK2.170) …], for which the IC50 in the experiment with HLA-A*0201 (human) [15] was found to be 500 nM; with HLA-A*0202 (human) [16], 51 nM; in the experiment with HLA-A*0203 (human) [17], 417 nM; in the experiment with HLA-A*6802 (human) [18] it was 2580 nM. Take LFEPPPPGY (modifications not checked) [… (PSM, position 143)]: in the experiment with HLA-A*0101 (human) [8], the binding affinity ratio (IC50 of standard peptide / IC50 of test peptide) was 0.001. As to CSGKIVIARY (modifications not checked) [PSM 196 peptide …], the binding affinity ratio (IC50 of standard peptide / IC50 of test peptide) with HLA-A*0301 (human) [2] (setting [24]) amounted to 0.06.

Consider DALFDIESK (modifications not checked) [PSM 710 peptide …], for which the binding affinity ratio (IC50 of standard peptide / IC50 of test peptide) with HLA-A*0301 (human) [2] was determined as 0.0006. On to SLQCVSLHLL (modifications not checked) [Peptide 1419.66 (HuK2.170) …], for which the IC50 came to 263 nM in the experiment with HLA-A*0201 (human) [15], 4.9 nM in the experiment with HLA-A*0202 (human) [16], 446 nM with HLA-A*0206 (human) [19] and 5000 nM with HLA-A*6802 (human) [18]. As to CALPEKPA (modifications not checked) [CALPEKPA (Kallikrein, position 234)], the binding affinity ratio (IC50 of standard peptide / IC50 of test peptide) with HLA-A*0201 (human) [9], in the experiment with HLA-A*0202 (human) [13], with HLA-A*0203 (human) [14], in the experiment with HLA-A*0206 (human) [10] and in the experiment with HLA-A*6802 (human) [11] was -0.0001 in each case.

With LTLSVTWIGAA (modifications not checked) [PSA 4 …], the binding affinity ratio (IC50 standard peptide / IC50 test peptide) (ratio to standard peptide) in the experiment with HLA-A*0201 (human) [20] came to 0.0008; with HLA-A*0202 (human) [21], 0.0014; with HLA-A*0203 (human) [22], 0.037; with HLA-A*0206 (human) [23] it was 0.0025. As to DVLLSYPNK (modifications not checked) [PSM 114 peptide …], the binding affinity ratio with HLA-A*1101 (human) [6] stood at 0.001. On to CALPEKPAVYT (modifications not checked) [… (Kallikrein, position 234)], for which the results for the binding affinity ratio (IC50 of standard peptide / IC50 of test peptide) with HLA-A*0201 (human) [9] (setting [24]) and with HLA-A*6802 (human) [11] (setting [24]) were 0.0008 and -0.0002, respectively. Take TAAHCIRNK (modifications not checked) [PSA 58 …]: the binding affinity ratio (IC50 of standard peptide / IC50 of test peptide) with HLA-A*1101 (human) [1] (setting [24]) worked out at 0.014. Take LLPPYASCH (modifications not checked) [… (PAP, position 306)]: in the experiment with HLA-A*0301 (human) [7], the binding affinity ratio (IC50 of standard peptide / IC50 of test peptide) worked out at 0.001. For the molecule TGQVFQVSH (modifications not checked) [PSA 82 …], in the experiment with HLA-A*1101 (human) [1], the binding affinity ratio (IC50 of standard peptide / IC50 of test peptide) is 0.0002. For TLRGAVEPDR (modifications not checked) [PSM 361 …], the binding affinity ratio (IC50 of standard peptide / IC50 of test peptide) with HLA-A*1101 (human) [1] came out at 0.0002. For the molecule CAGLWTGGKDT (modifications not checked) [… (Kallikrein, position 198)], the binding affinity ratio (IC50 of standard peptide / IC50 of test peptide) was 0.0001 with HLA-A*0201 (human) [9], 0.0003 with HLA-A*0202 (human) [13], -0.0001 with HLA-A*0206 (human) [10] and -0.0002 in the experiment with HLA-A*6802 (human) [11]. Consider LSLLSLYGIH (modifications not checked) [… (PAP, position 241)], for which the binding affinity ratio (IC50 of standard peptide / IC50 of test peptide) with HLA-A*0301 (human) [7] came to 0.0003.
